The target of this data set is FEN1 (human, UniProt P39748 2-380). As to the kind of experiment: smFRET kinetics.
Chain of FEN1 (P39748 2-380): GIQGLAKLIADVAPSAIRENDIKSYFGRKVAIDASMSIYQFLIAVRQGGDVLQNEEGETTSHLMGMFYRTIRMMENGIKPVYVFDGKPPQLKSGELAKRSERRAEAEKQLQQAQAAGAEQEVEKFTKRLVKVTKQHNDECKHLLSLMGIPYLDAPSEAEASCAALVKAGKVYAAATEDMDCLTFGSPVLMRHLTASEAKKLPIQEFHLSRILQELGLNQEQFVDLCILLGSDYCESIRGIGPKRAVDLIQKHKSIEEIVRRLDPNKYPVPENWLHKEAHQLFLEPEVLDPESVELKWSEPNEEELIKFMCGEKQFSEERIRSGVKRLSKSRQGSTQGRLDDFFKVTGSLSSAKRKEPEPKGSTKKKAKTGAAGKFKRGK

B1: NickInternal (dsDNA)
DNA 1: TGACCGTGTTTGACGGTCGTGAGGAGGAAAGTTCCTCCTACGGCAG
DNA 2: CTGCCGTAGGAGGAACTTTCCTCCTC
DNA 3: ACGACCGTCAAACAACGGTCA
modifications: 5' phosphate at nick; biotin; iCy3 internal in template
On to B1, for which binding was characterised by a dissociation constant (Kd) of 62 ± 9 nM.

The values are drawn from paper PMC5888579.
